Laboratory results as given in patent US20190048073A1, “ANTI-GD3 ANTIBODIES AND ANTIBODY-DRUG CONJUGATES” (Pfizer Inc., priority 2017, published 2019).
Like-named read-outs stand apart in the source and are kept apart here.

B1: hAb 3: fully humanized mR24 based on framework shuffle (SEQ ID NOs: 32 and 33, VL framework V1-12 and VH framework V3-7) (antibody, V domains shown)
VH: EVQLVESGGGLVQPGGSLRLSCAASGFTFSNFGMHWVRQAPGKGLEWVAYISSGGSSINYADTVKGRFTISRDNAKNSLYLQMNSLRAEDTAVYYCARGGTGTRSLYYFDYWGQGTLVTVSS
VL: DIQMTQSPSSVSASVGDRVTITCRASQDIGNFLNWYQQKPGKAPKLLIYYTSRLQSGVPSRFSGSGSGTDFTLTISSLQPEDFATYYCQQGKTLPYTFGGGTKVEIK
B2: hAb 21: fully humanized mR24 based on framework shuffle (SEQ ID NOs: 30 and 31, VL framework V3-11 and VH framework V3-7) (antibody, V domains shown)
VH: B1 VH
VL: EIVLTQSPATLSLSPGERATLSCRASQDIGNFLNWYQQKPGQAPRLLIYYTSRLQSGIPARFSGSGSGTDFTLTISSLEPEDFAVYYCQQGKTLPYTFGGGTKVEIK
B3: KM871: chR24 (hAb.51) chimeric version (hIgG1, kappa) of KM641 (SEQ ID NOs: 28 and 29) (antibody, V domains shown)
VH: EVTLVESGGDFVKPGGSLKVSCAASGFAFSHYAMSWVRQTPAKRLEWVAYISSGGSGTYYSDSVKGRFTISRDNAKNTLYLQMRSLRSEDSAMYFCTRVKLGTYYFDSWGQGTTLTVSS
VL: DIQMTQTASSLPASLGDRVTISCSASQDISNYLNWYQQKPDGTVKLLIFYSSNLHSGVPSRFSGGGSGTDYSLTISNLEPEDIATYFCHQYSKLPWTFGGGTKLEIK

Experiment: Estimation of binding affinity by Octet
Description: Murine R24 (mR24) is a murine antibody that binds GD3 (SEQ ID NOs: 17 and 19). To minimize the risk of immunogenicity, an attempt was made to humanize mR24 for further therapeutic development. An earlier attempt to humanize mR24 is disclosed in WO2008/101234. The CDRs of murine antibody mR24 were identified using Kabat. Humanization of mR24 was first attempted using the semi-empirical framework shuffle approach. In this approach, human germline frameworks with a high degree of homology with mR24 sequences, VL frameworks V1-12 and V3-11 and VH framework V3-7, were selected. The selected frameworks were then used as the acceptor framework for mR24 without any backmutations in the framework region. The CDRs of mR24 were then inserted into the acceptor frameworks, and antibody proteins were generated and assessed for their expression yield, purification properties, and GD3 target binding activity. After screening, two advanced humanization variants with high GD3 binding activity, overall expression yields, and stability, hAb 21 (SEQ ID NOs: 30 and 31, VL framework V3-11 and VH framework V3-7) and hAb3 (SEQ ID NOs: 32 and 33, VL framework V1-12 and VH framework V3-7), were further evaluated for their aggregation level after purification.

[1] = antibody concentrated (Ab 3 21.2 mg/ml, hAb 21 27.8 mg/ml), in Tier-1 buffer

Kd [1] [nM]	Kdis [1] [s⁻¹]	Kon [1] [M⁻¹ s⁻¹]	Kd (antibody dialyzed in PBS) [nM]	Kdis (antibody dialyzed in PBS) [s⁻¹]	Kon (antibody dialyzed in PBS) [M⁻¹ s⁻¹]	Kd [nM]	Kdis [s⁻¹]	Kon [M⁻¹ s⁻¹]	Molecule
59.7	0.00278	75400	55.8	0.00144	37700				B1
31.1	0.00111	44600	28.9	0.00136	59700				B2
						9.02	0.00596	1.33e+06	B3
